Biological target: T1, Tat peptide (arginine-rich motif) (HIV-1, UniProt P04608)
T1 chain: RKKRRQRRRPPQG
Test: in-cell NMR

B1: anti-Tat RNA aptamer (structured_RNA)
RNA: GGGAGCUUGAUCCCGGAAACGGUCGAUCGCUCCC
binding result: binds

From PMC12534491
